Test results published in US20190161555A1 (ALLIGATOR BIOSCIENCE, published 2019).

T1: murine OX40 (murine, UniProt P47741 20-211, limits assumed)
T1 construct: also called mouse OX40
T1 sequence (looked up): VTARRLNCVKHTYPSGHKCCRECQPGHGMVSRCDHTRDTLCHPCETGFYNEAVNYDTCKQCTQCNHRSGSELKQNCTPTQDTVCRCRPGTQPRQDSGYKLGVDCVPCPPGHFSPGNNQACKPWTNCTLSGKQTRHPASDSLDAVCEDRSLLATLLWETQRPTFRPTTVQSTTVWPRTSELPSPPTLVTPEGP

B1: 1170/1171 (antibody, V domains shown)
VH: EVQLLESGGGLVQPGGSLRLSCAASGFTFGGYYMSWVRQAPGKGLEWVSYIPGSGGSTYYADSVKGRFTISRDNSKNTLYLQMNSLRAEDTAVYYCARYDYYWMDYWGQGTLVTVSS
VL: DIQMTQSPSSLSASVGDRVTITCRASQSISSYLNWYQQKPGKAPKLLIYAASSLQSGVPSRFSGSGSGTDFTLTISSLQPEDFATYYCQQGHGSYPHTFGQGTKLEIK
notes: OX40 antibody, tested as IgG
B2: 1490/1135 (antibody, V domains shown)
VH: EVQLLESGGGLVQPGGSLRLSCAASGFTFSSYAMSWVRQAPGKGLEWVSGISYYGGYTYYADSVKGRFTISRDNSKNTLYLQMNSLRAEDTAVYYCARYYPHHYIDYWGQGTLVTVSS
VL: not shown
notes: OX40 antibody, tested as IgG
B3: 1514/1515 (antibody, V domains shown)
VH: EVQLLESGGGLVQPGGSLRLSCAASGFTFGYYYMSWVRQAPGKGLEWVSGISSYGSYTYYADSVKGRFTISRDNSKNTLYLQMNSLRAEDTAVYYCARSGYSNWANSFDYWGQGTLVTVSS
VL: DIQMTQSPSSLSASVGDRVTITCRASQSISSYLNWYQQKPGKAPKLLIYAASSLQSGVPSRFSGSGSGTDFTLTISSLQPEDFATYYCQQGDYTLFTFGQGTKLEIK
notes: OX40 antibody, tested as IgG

molecular target: T1, murine OX40; experiment: ELISA

binding result	Binder
no binding	B1
no binding	B2
no binding	B3

molecular target: CD40 (Ancell) (UniProt P25942 21-193, limits assumed); experiment: ELISA, CD40 coated
Sequence (P25942 21-193 limits assumed): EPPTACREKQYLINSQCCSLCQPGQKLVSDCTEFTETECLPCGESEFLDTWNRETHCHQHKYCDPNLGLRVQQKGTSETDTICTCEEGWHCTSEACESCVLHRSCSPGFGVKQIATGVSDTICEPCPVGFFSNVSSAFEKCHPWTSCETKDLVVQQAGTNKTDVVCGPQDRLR
Experimental: (§1) ELISA plates were coated with human OX40 (R&D Systems, 3388-OX), CD40 (Ancell), or CD137 (R&D Systems) at 0.1 or 0.5 μg/ml. The ELISA plates were washed with PBST and then blocked with PBST+2% BSA for 1 h at room temperature and then washed again with PBST. The antibodies were added in dilution series to the ELISA plates for 1 h at room temperature and then washed with PBST. Binding was detected using goat anti human kappa light chain HRP, incubated for 1 h at room temperature. SuperSignal Pico Luminescent was used as substrate and luminescence was measured using Fluostar Optima.

binding result	Binder
no binding	B1
no binding	B2
no binding	B3

molecular target: CD137 (R&D Systems) (UniProt Q07011 24-186, limits assumed); experiment: ELISA, CD137 coated
Sequence (Q07011 24-186 limits assumed): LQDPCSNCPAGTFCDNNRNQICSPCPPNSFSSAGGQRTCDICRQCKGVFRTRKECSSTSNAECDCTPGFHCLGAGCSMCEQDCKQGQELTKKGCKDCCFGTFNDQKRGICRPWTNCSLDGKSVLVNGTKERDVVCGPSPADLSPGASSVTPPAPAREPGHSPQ
Experimental: as §1

binding result	Binder
no binding	B1
no binding	B2
no binding	B3
